The values below come from publication doi:10.1101/2021.09.23.461563.

The target in test [1] is GST-ErpQ (Borrelia burgdorferi strain B31). In words: SPR.
Test [2] addresses GST-ErpB (Borrelia burgdorferi strain B31). In words: SPR.

B1: C1r enzyme (activated form of human C1r) (enzyme)
chain 1: SIPIPQKLFGEVTSPLFPKPYPNNFETTTVITVPTGYRVKLVFQQFDLEPSEGCFYDYVKISADKKSLGRFCGQLGSPLGNPPGKKEFMSQGNKMLLTFHTDFSNEENGTIMFYKGFLAYYQAVDLDECASRSKSGEEDPQPQCQHLCHNYVGGYFCSCRPGYELQEDTHSCQAECSSELYTEASGYISSLEYPRSYPPDLRCNYSIRVERGLTLHLKFLEPFDIDDHQQVHCPYDQLQIYANGKNIGEFCGKQRPPDLDTSSNAVDLLFFTDESGDSRGWKLRYTTEIIKCPQPKTLDEFTIIQNLQPQYQFRDYFIATCKQGYQLIEGNQVLHSFTAVCQDDGTWHRAMPRCKIKDCGQPRNLPNGDFRYTTTMGVNTYKARIQYYCHEPYYKMQTRAGSRESEQGVYTCTAQGIWKNEQKGEKIPRCLPVCGKPVNPVEQRQR
chain 2: IIGGQKAKMGNFPWQVFTNIHGRGGGALLGDRWILTAAHTLYPKEHEAQSNASLDVFLGHTNVEELMKLGNHPIRRVSVHPDYRQDESYNFEGDIALLELENSVTLGPNLLPICLPDNDTFYDLGLMGYVSGFGVMEEKIAHDLRFVRLPVANPQACENWLRGKNRMDVFSQNMFCAGHPSLKQDACQGDSGGVFAVRDPNTDRWVATGIVSWGIGCSRGYGFYTKVLNYVDWIKKEMEEED
Regarding B1, the Kd in test [1] is 0.097 µM; in test [2], 0.1 µM.

B2: C1s enzyme (activated form of human C1s) (enzyme)
chain 1: EPTMYGEILSPNYPQAYPSEVEKSWDIEVPEGYGIHLYFTHLDIELSENCAYDSVQIISGDTEEGRLCGQRSSNNPHSPIVEEFQVPYNKLQVIFKSDFSNEERFTGFAAYYVATDINECTDFVDVPCSHFCNNFIGGYFCSCPPEYFLHDDMKNCGVNCSGDVFTALIGEIASPNYPKPYPENSRCEYQIRLEKGFQVVVTLRREDFDVEAADSAGNCLDSLVFVAGDRQFGPYCGHGFPGPLNIETKSNALDIIFQTDLTGQKKGWKLRYHGDPMPCPKEDTPNSVWEPAKAKYVFRDVVQITCLDGFEVVEGRVGATSFYSTCQSNGKWSNSKLKCQPVDCGIPESIENGKVEDPESTLFGSVIRYTCEEPYYYMENGGGGEYHCAGNGSWVNEVLGPELPKCVPVCGVPREPFEEKQR
chain 2: IIGGSDADIKNFPWQVFFDNPWAGGALINEYWVLTAAHVVEGNREPTMYVGSTSVQTSRLAKSKMLTPEHVFIHPGWKLLEVPEGRTNFDNDIALVRLKDPVKMGPTVSPICLPGTSSDYNLMDGDLGLISGWGRTEKRDRAVRLKAARLPVAPLRKCKEVKVEKPTADAEAYVFTPNMICAGGEKGMDSCKGDSGGAFAVQDPNDKTKFYAAGLVSWGPQCGTYGLYTRVKNYVDWIMKTMQENSTPRED
As to B2, the Kd in test [1] is 0.0045 µM; in test [2] it was 0.0039 µM.
